Data published in PMC10579229 (Nature Communications, 2023).

B1: nanobody M4 (VHH)
VHH: QVKLQQSGGGLVQPGGSLRLSCAASESTISINTLGWYRQAPGNQRELVATITTGGTTNYADSVKGRFTISRDNAKNTVYLQMNNLEPGDTAVYYCNLKRRDLQSRFGGYWGQGTQVTVSS
B2: GII.4 Sydney 2012 P-domain (protruding domain of the capsid protein VP1) (domain or fragment)
chain: ESRTKPFSVPVLTVEEMTNSRFPIPLEKLFTGPSSAFVVQPQNGRCTTDGVLLGTTQLSPVNICTFRGDVTHITGSRNYTMNLASQNWNDYDPTEEIPAPLGTPDFVGKIQGVLTQTTRTDGSTRGHKATVYTGSADFAPKLGRVQFETDTDRDFEANQNTKFTPVGVIQDGGTTHRNEPQQWVLPSYSGRNTHNVHLAPAVAPTFPGEQLLFFRSTMPGCSGYPNMDLDCLLPQEWVQYFYQEAAPAQSDVALLRFVNPDTGRVLFECKLHKSGYVTVAHTGQHDLVIPPNGYFRFDSWVNQFYTLAPMG
modifications: biotin (EZ-Link NHC-LC-LC-biotin), in the BLI only
notes: also called GII.4 P-domain; GII.4 Sydney P-domain; source: E. coli BL21(DE3), purified (His-Trap, TEV cleavage, His-Trap, MBPTrap, SEC); not shown: His6, N-terminal, cleaved; MBP, N-terminal, cleaved

Experiments:
[1] = molecular target: capsid protein VP1 of GII.4 New Orleans HuNoV (human norovirus GII.4 (New Orleans))
[2] = molecular target: capsid protein VP1 of GII.4 Den Haag HuNoV (human norovirus GII.4 (Den Haag))
[3] = molecular target: the molecule itself; assay: crystal structure; P-domain and M4 mixed 1:1.5, complex peak from S200 gel filtration; crystals at 20 °C in 2% Tacsimate pH 4.0, 0.1 M sodium acetate pH 4.6, 16% PEG 3350; 2.87 Å

Binder | IC50 of neutralisation of GII.4 New Orleans HuNoV (stool filtrate, 100 TCID50) in J4 FUT2 human intestinal enteroid monolayers; viral genome equivalents by RT-qPCR at 24 hpi [1] [mg/L] | IC50 of neutralisation of GII.4 Den Haag HuNoV (stool filtrate, 100 TCID50) in J4 FUT2 human intestinal enteroid monolayers; viral genome equivalents by RT-qPCR at 24 hpi [2] [mg/L] | stoichiometry N [3]
B1 | 0.056 | 0.379 | 
B2 |  |  | 2
